This experiment deals with T1, MBP-PqsH, recombinant (P. aeruginosa PAO1, UniProt Q9I0Q0 1-382).
T1 construct: also called PqsH protein; source: E. coli BL21 (DE3), pMAL-C5x, purified (Dextrin Beads 6FF, Mono Q ion exchange, Superdex 200 gel filtration)
T1 sequence: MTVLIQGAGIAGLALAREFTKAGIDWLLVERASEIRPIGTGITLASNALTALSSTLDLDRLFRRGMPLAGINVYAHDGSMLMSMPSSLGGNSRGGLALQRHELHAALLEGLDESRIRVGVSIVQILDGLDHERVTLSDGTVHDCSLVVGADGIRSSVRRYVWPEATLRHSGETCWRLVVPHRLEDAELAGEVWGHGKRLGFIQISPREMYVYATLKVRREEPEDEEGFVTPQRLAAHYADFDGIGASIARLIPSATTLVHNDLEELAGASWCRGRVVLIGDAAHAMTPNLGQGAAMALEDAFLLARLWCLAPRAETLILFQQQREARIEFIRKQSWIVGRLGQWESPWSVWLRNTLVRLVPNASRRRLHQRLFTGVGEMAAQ
Put plainly: SPR. The settings on record: both partners purified.

B1: HIS-ZapE, recombinant (natural protein, P. aeruginosa PAO1, UniProt Q9HVX7 1-364, looked up)
chain: MTPLERYQADLQRPDFFHDAAQANAVKHLQRLYDDLVAADHAKPGLFGKLLGRKSGGPVKGLYFWGGVGRGKTYLVDTFFESLPFEQKVRTHFHRFMKRVHEELKTLKGEKNPLTIIGKRFADEARVICFDEFFVSDITDAMILATLLEELFKNGVSLVATSNIVPDGLYKDGLQRARFLPAIALLKEHTEIVNVDSGVDYRLRALEQAELFHWPLSEQVEEEMARSFKALTPDCAKAQRDEALMIENREIRARLTCDDVAWFEFRELCDGPRSQNDYIELAKIFHAVLISNVEQMGVTKDDMARRFINLVDEFYDRSVKLIISAEVELKDLYSGGRLEFEFQRTLSRLLEMQSHEYLTRPHRP
notes: also called PA4438; ZapE protein; source: E. coli BL21 (DE3), pET28a, purified (Ni NTA beads, Mono Q ion exchange, Superdex 200 gel filtration)
On to B1, for which the binding result is given as “binds”.

The values above are taken from publication PMC10989928, “Cell division factor ZapE regulates Pseudomonas aeruginosa biofilm formation by impacting the pqs quorum sensing system” (mLife, 2023).
